Assay results from patent US20050164936.

Tests used:
[1] = biological target: monocyte chemotactic protein-3 (MCP-3), P80098
RANTES(1-68) = biological target: T1, RANTES(1-68)
T1 chain: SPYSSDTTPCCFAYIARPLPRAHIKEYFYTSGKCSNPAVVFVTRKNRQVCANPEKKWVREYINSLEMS

MCP-2, P80075 = biological target: T2, MCP-2, P80075
T2 chain: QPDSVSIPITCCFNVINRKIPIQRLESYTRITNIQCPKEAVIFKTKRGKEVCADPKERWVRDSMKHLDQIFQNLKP

Sequence of MCP-1, P13500 (P13500 whole entry, looked up): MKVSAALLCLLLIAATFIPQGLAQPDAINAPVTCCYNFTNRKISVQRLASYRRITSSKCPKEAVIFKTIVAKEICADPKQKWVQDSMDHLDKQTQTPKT
Sequence of monocyte chemotactic protein-3 (MCP-3), P80098 (P80098 24-99): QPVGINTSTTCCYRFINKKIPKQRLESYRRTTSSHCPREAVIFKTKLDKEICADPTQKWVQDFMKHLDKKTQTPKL

B1: Human CD26/DPP IV (protein)
chain: MKTPWKVLLGLLGAAALVTIITVPVVLLNKGTDDATADSRKTYTLTDYLKNTYRLKLYSLRWISDHEYLYKQENNILVFNAEYGNSSVFLENSTFDEFGHSINDYSISPDGQFILLEYNYVKQWRHSYTASYDIYDLNKRQLITEERIPNNTQWVTWSPVGHKLAYVWNNDIYVKIEPNLPSYRITWTGKEDIIYNGITDWVYEEEVFSAYSALWWSPNGTFLAYAQFNDTEVPLIEYSFYSDESLQYPKTVRVPYPKAGAVNPTVKFFVVNTDSLSSVTNATSIQITAPASMLIGDHYLCDVTWATQERISLQWLRRIQNYSVMDICDYDESSGRWNCLVARQHIEMSTTGWVGRFRPSEPHFTLDGNSFYKIISNEEGYRHICYFQIDKKDCTFITKGTWEVIGIEALTSDYLYYISNEYKGMPGGRNLYKIQLSDYTKVTCLSCELNPERCQYYSVSFSKEAKYYQLRCSGPGLPLYTLHSSVNDKGLRVLEDNSALDKMLQNVQMPSKKLDFIILNETKFWYQMILPPHFDKSKKYPLLLDVYAGPCSQKADTVFRLNWATYLASTENIIVASFDGRGSGYQGDKIMHAINRRLGTFEVEDQIEAARQFSKMGFVDNKRIAIWGWSYGGYVTSMVLGSGSGVFKCGIAVAPVSRWEYYDSVYTERYMGLPTPEDNLDHYRNSTVMSRAENFKQVEYLLIHGTADDNVHFQQSAQISKALVDVGVDFQAMWYTDEDHGIASSTAHQHIYTHMSHFIKQCFSLP
proteolytic processing (overnight incubation, Edman degradation) (MCP-1, P13500): no NH2-terminal sequence could be detected, indicating that CD26/DPP IV does not alter the NH2-terminus of MCPs | proteolytic processing (overnight incubation, Edman degradation) [1]: no NH2-terminal sequence could be detected, indicating that CD26/DPP IV does not alter the NH2-terminus of MCPs | proteolytic processing (overnight incubation, Edman degradation) (RANTES(1-68)): CD26/DPP IV treatment of RANTES resulted in the removal of the NH2-terminal dipeptides | proteolytic processing (overnight incubation, Edman degradation) (MCP-2, P80075): no NH2-terminal sequence could be detected, indicating that CD26/DPP IV does not alter the NH2-terminus of MCPs
